We go through 1 substance from PMC8906423.

In assay [1] the target is RBDA7-S chimera (H77c E2 RBD with 7 Cys-to-Ala mutations fused to the N terminus of DHBV S antigen) (hepatitis C virus genotype 1a, H77c | duck hepatitis B virus) (UniProt P27958). The assay is described as follows: co-sedimentation + other: quantitative Western blot; gradient-purified VLP preparations; amount and proportion of E2 and S within VLPs quantified with Image Studio software; 4 consecutive preps. (In western blotting, separated proteins are transferred to a membrane and probed.)

Assay [2] addresses Δ123A7-S chimera (H77c E2 Δ123 with 7 Cys-to-Ala mutations fused to the N terminus of DHBV S antigen) (hepatitis C virus genotype 1a, H77c | duck hepatitis B virus) (UniProt P27958). The description is as above.

“And” between values parts separate entries of the source, which are not always exact repeats. Equal values may be shown once.

Consider “duck hepatitis B virus (DHBV) small surface antigen (S) (natural protein)”, for which the stoichiometry N (mol S per mol RBDA7-S) in assay [1] was 4 and 10 and 7. In assay [2], the stoichiometry N (mol S per mol Δ123A7-S) is 2 and 4.
